The RNAGym collection of RNA variant scans (doi:10.1073/pnas.2313332121)
This sample holds only a part of the variants without activity.

B1: TPR 5TU (parent)
chain: GGAUCUUCUCGAUCUAACAAAAAAGACAAAUCUGCCACAAAGCUUGAGAGCAUCUUCGGAUGCAGAGGCGGCAGCCUUCGGUGGCGCGAUAGCGCCAACGUUCUCAACUAUGACACGCAAAACGCGUGCUCCGUUGAAUGGAGUUUAUCAUG

Variants of: B1
Assay: polymerase ribozyme fitness, log enrichment relative to wild type (log ratio); higher = more active; in vitro selection for triplet polymerase activity
How it was run: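 Fitness compares each genotype's enrichment to that of the wild type on a logarithmic scale, averaging replicates with inverse-variance weights. The logarithm is base 2. Enrichment came from Illumina sequencing of input and output libraries after one triplicate round of in vitro selection, which included frozen incubation at −7 °C, of PCR-built, transcribed mutant libraries of each subunit of a heterodimeric triplet polymerase ribozyme. Only genotypes with ≥10 input reads and ≥1 read per output were kept.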

Row | Variant | polymerase ribozyme fitness (log ratio)
1 | C27G A28U G50U C87G G140C | -3.94
2 | C35U U82C | 0.243
3 | G11A C85A | -2.76
4 | U9G C103A | -3.73
5 | A40U U55A G58C C85G A119U | -2.59
6 | A26C C63U C85A A120U | -3.53
7 | C18G G50A C76U A115G A119G | -3.18
8 | C8U G92C U111C | ≤ -4.2
9 | U55G G84A C118U | -0.685
10 | C18A U56A G92U C105U C114A U144G | -3.79
11 | G92C U101G C131A | -3.96
12 | U33G G50U C51G A52C C76A G92A C93A A98U | ≤ -4.2
13 | G84U C96U A122G C149G | ≤ -4.2
14 | A52C C57G G94A G100U U148A | ≤ -4.2
15 | G59C G67A U78G C79A C87A G143A | ≤ -4.2
16 | U104A G143A | -1.63
17 | C8U A60G A121C | -3.73
18 | G58U A60G A137C | ≤ -4.2
19 | A12C A52G G68U A98U | -4.19
20 | G68A C87A A107G G117U C132G | ≤ -4.2
21 | G81C G84U | -2.44
22 | A22U A29C A47G U134C U139A | ≤ -4.2
23 | C57U C85U U102A C114A | -3.9
24 | G81A C87U | -1.73

Row | Variant | polymerase ribozyme fitness (log ratio)
25 | G80A G126A | -0.283
26 | C72G G83A G100A | ≤ -4.2
27 | A12U A49U C54G C93G | ≤ -4.2
28 | G25A | -1.62
29 | G84A A119U | -0.787
30 | G59A G83C A89U | -1.39
31 | G48C U53C G136U | -3.16
32 | U15C C93U | -0.331
33 | A47G U55A G84U G128A | ≤ -4.2
34 | C8U C35U A41C G58C G68U G86U C114A G140A | ≤ -4.2
35 | A12G C27A C76A A147C U148A | ≤ -4.2
36 | G46C C57U U61G C75G A119U G141A | ≤ -4.2
37 | C76A A107G U145C | ≤ -4.2
38 | C72U C93U U111C A119U A142G | ≤ -4.2
39 | C10U A52U A60C G88U | ≤ -4.2
40 | A26U U31C A52U A73G C87A A107G | ≤ -4.2
41 | C54G C75A | ≤ -4.2
42 | U55A G126C | 1.42
43 | G88U G126A | -2.98
44 | A24G G92A A121U A147G | ≤ -4.2
45 | A21G C85U | -0.132
46 | G48A C85G C125G | -4.1
47 | C8U C32A A49G G92A C96U U127G A138G | ≤ -4.2
48 | C14A | -1.08

Row | Variant | polymerase ribozyme fitness (log ratio)
49 | C14U A107U G117A C118A A142G | ≤ -4.2
50 | A37C A41U G48U A73U C93G C99U G140A | ≤ -4.2
51 | A19G A29G G92A C116G | -3.8
52 | U55A U146A | -0.393
53 | A41C C132A | -2.55
54 | U53A A73G G74C C85A U90C | ≤ -4.2
55 | A16U G65A C69A A91U C93A G100C U101G C123G | ≤ -4.2
56 | A73U C75G U78A A89G C93G C95A U146G | ≤ -4.2
57 | C76A C85G C87U G141C A142C | ≤ -4.2
58 | G34U A106G | -0.622
59 | G50C A137C G141U | ≤ -4.2
60 | C85U U146A G152U | -3.06
61 | G11U G42C G68A C85U G128U C132G U139G U148A | ≤ -4.2
62 | A23C A47G C96A | ≤ -4.2
63 | C51U A115U | -2.12
64 | C36A G92A | -3.98
65 | C10G C14U C36A C79U G92U | ≤ -4.2
66 | C76A C85G | -3.53
67 | C35G C96U | -4.18
68 | A17C A29U C72U G81C G140U | ≤ -4.2
69 | A16C A17G C76G C96A A107G | ≤ -4.2
70 | C99U A107G | -4.16
71 | A41C C43U C125U | ≤ -4.2
72 | C14G A29G U33C A37U U111G G124U U134A | ≤ -4.2

Row | Variant | polymerase ribozyme fitness (log ratio)
73 | G58U C105U A106G C149U | 0.147
74 | A12C C57U C76G C96U | ≤ -4.2
75 | A98U C105A A119G A121C | -0.491
76 | U7G U15G A21C A39G U45G G92U U127C | ≤ -4.2
77 | A20G G117A | -0.0564
78 | A26U C36A G58C A89G G94U A138G | ≤ -4.2
79 | A20U U55A | -2.07
80 | C38U G48A A60C C72G C96A C99U C114G U139G U148G | ≤ -4.2
81 | C14G A24U A30U U44A C54A C87U G112U | -4.11
82 | C95U U130G | -2.55
83 | A47C C63A G83A | -1.37
84 | A19G A52U U53A U82C C87G | ≤ -4.2
85 | A21U U55A | -0.879
86 | U55G G59A G83A A98C C116G U127G | -4.04
87 | A17G U45A G50A G62U C79G G86U C103A | ≤ -4.2
88 | A3U A12G C43U C54U G71U C79A A120C | ≤ -4.2
89 | U55A U77G U134C U139C | ≤ -4.2
90 | C96U G124A | -0.382
91 | A16C A24C G50C C85U G143U | ≤ -4.2
92 | A17G U90C C93U C105G A122G G143C | ≤ -4.2
93 | U15C C54A C87U G94A A98U C125A | -3.98
94 | U109G C125U C129U | -4.06
95 | A40U C85U | -0.107
96 | U9G C14G A110C C123U G141A | ≤ -4.2

Row | Variant | polymerase ribozyme fitness (log ratio)
97 | U53A G83U A147C | -1.91
98 | A12G C35U G83A | -0.598
99 | G50A A73U C96G A98U A120U A137G | ≤ -4.2
100 | G48A C103A | -1.74
101 | A60U G86A | -2.78
102 | A147C | 0.176
103 | U55A G92A C125A | -3.46
104 | C85A G152A | -3.87
105 | C8A C85G C103U A110G U134G C149G | ≤ -4.2
106 | U102G A120U | -1.94
107 | C35A G86A | ≤ -4.2
108 | G11U U53A C132U U146G | -3.51
109 | C93A G143A | -2.78
110 | A49G C51A G94A G124U | -3.32
111 | U13C C57A G58A A66G U82G C116U | ≤ -4.2
112 | A19G A40C C85G A147C | -3.28
113 | C14G G94A | -2.61
114 | C10A A66U G81A G94U U134A | ≤ -4.2
115 | U15G C35U A41C A115G U145G | -4.04
116 | A52C C85U A121C U134C A142C | -2.29
117 | A40C C99U | 0.519
118 | A52U A60G C76U A89U C96U | -3.8
119 | U53A G136U U144G | -1.85
120 | A24U G42A G88A G92A A115C | ≤ -4.2

Row | Variant | polymerase ribozyme fitness (log ratio)
121 | U31C G70A A98G G124C | ≤ -4.2
122 | A30C C95G A119U C132U | ≤ -4.2
123 | A47U U55G G94A | -0.633
124 | C85A C87A C108U A121U U135C G141A U145A | ≤ -4.2
125 | A30C G46U C95G U102G | ≤ -4.2
126 | U56A G83C A122G G152U | -3.94
127 | C10U U15G A23U C43U U82C G92U U104C | ≤ -4.2
128 | C57U A97U | -1.22
129 | A22U C27U G86U | -3.28
130 | C35U G74C C99U | -4.12
131 | C14G A24C A49G G92C | ≤ -4.2
132 | U44A A52G C85A C118U | ≤ -4.2
133 | A52G G70A C96A U102G C129G G143A U146A | ≤ -4.2
134 | U61G G62A C87U | -1.28
135 | C63U G68A G83C A115C U144C C149A | ≤ -4.2
136 | U33G A49U A91G G152A | ≤ -4.2
137 | A22U C36U U78C U146C | -3.63
138 | A12G G48A G71A G86A G126U C131A G140U C149A A150G | ≤ -4.2
139 | G42C C51U C103G | ≤ -4.2
140 | G71U | -1.93
141 | A16U A17U U44A C54U A66G A89G G140C | ≤ -4.2
142 | C51U G58U U82G C96U | -0.59
143 | G25C A40U C87U C93A C95U | ≤ -4.2
144 | A28U C85A | -4.11

Row | Variant | polymerase ribozyme fitness (log ratio)
145 | A37C U56A | -0.806
146 | A17C C95U C96U G136A U144C A147U | -0.941
147 | U44A C51U C76U A106U A110G | ≤ -4.2
148 | G81U A97U C105U | 0.976
149 | C85U C96A C116G | -0.604
150 | C43G G88A C95U C105A | ≤ -4.2
151 | A12G U13C C38U G58A A73U | -1.35
152 | A73C C85A A110C A119U G136U | ≤ -4.2
153 | G83C A110G | -3.65
154 | A41C C43A A91C C99U A113U | ≤ -4.2
155 | U31G G81U C87G U104G G128C | ≤ -4.2
156 | C36A U44A G62C C93U U135G U139C U144A | ≤ -4.2
157 | U13C A26U U56A G58C C63A G74U G88C A97U | ≤ -4.2
158 | C10U A19U A21U C32G G42A G80C A137U | ≤ -4.2
159 | A19G G68U C79G G84A G86A U135C G140U | ≤ -4.2
160 | C38U A73U C93U A107U G117U | ≤ -4.2
161 | U6C A29U A41C G42U G59C C85U G100U A107G G124A | ≤ -4.2
162 | A49U G67A C95U C114G A142C | ≤ -4.2
163 | C35U A41C U56A C76U G88U C105U | ≤ -4.2
164 | A17G G84A A147C | -0.273
165 | A73G G92A C132U G141C | ≤ -4.2
166 | A52G U148G | -4.18
167 | G11C A30U C95A C108G U148A | ≤ -4.2
